Reference: patent US20250011456A1, “ANTIBODIES AGAINST CD14 AND USES THEREOF” (Villanelle Life Science Inc, priority 2023, published 2025)
Several values for one entry are separate records, joined by “and”; a condition that tells them apart may be missing. Equal values may be shown once.

Legend:
[1] = test system: CD14 positive recurrent bladder cancer patient-derived xenograft (PDX); test: Amount of anti-CD14-IgG1 (5-40 mg/kg) for tumor treatment in PDX mice (tumor length, width, volume, tumor weight; Example 7); type: in vivo; conditions: for Tumor Length / Tumor Volume / Tumor Width: per mouse 1-5; for Tumor weight after 28 days: individual mice 1-5
Description: After removing the primary tumor tissue from the patient, the tissue was temporarily placed in a complete culture medium containing RPMI1640 (Gibco Roswell Park Memorial Institute 1640 Media)+PS (penicillin and streptomycin)+10% FBS (Fetal bovine serum). The tissue was then transported to a sterile operating room within an SPF-grade (Specific Pathogen Free) animal facility. The tumor tissue was cut to an appropriate size (5 millimeters (mm) in diameter). Severely immunodeficient NSG (NOD scid gamma mouse) mice were anesthetized using an isoflurane respirator. The tumor was transplanted subcutaneously into the right rib area through surgery. When the tumor volume reached 1 cm^3, it was passaged following the same procedure, and after expanding for three generations, the tumor became stable for use in formal experiments. During the experiment, passaging and expansion were performed as needed. When the tumor volume reached 100 mm^3, the mice were divided into groups according to the experimental requirements and treated with drugs.
To evaluate concentrations for the anti-CD14-IgG1 antibody, PDX mice were treated with five different concentrations of the IgG1 antibody over a period of 28 days. For these experiments, drug administration on the PDX mice was performed intravenously on alternating 4 days and 3 days.
The five different concentrations of the anti-CD14-IgG1 antibody tested include 5 mg/kg, 10 mg/kg, 15 mg/kg, 25 mg/kg, and 40 mg/kg. A control regimen was utilized as a comparative example. […] The non-specific IgG1 has no binding affinity to antigen. […] Tumor weight and tumor volume were calculated as described above.

[2] = target: T1, human CD14 antigen (B294801, histidine tagged) (Homo sapiens, UniProt P08571); test: Biacore 8K kinetic and affinity test of antibodies without PTM sites (Example 9); type: binding; conditions: Biacore 8K, analyte B294801 0.1953125-25 nM, capture conc. 1 μg/mL
T1 construct: His; purchased Shanghai BaiYing Biotechnology Co., Ltd B294801 (Batch number 20200518A22)
T1 sequence (P08571 20-345): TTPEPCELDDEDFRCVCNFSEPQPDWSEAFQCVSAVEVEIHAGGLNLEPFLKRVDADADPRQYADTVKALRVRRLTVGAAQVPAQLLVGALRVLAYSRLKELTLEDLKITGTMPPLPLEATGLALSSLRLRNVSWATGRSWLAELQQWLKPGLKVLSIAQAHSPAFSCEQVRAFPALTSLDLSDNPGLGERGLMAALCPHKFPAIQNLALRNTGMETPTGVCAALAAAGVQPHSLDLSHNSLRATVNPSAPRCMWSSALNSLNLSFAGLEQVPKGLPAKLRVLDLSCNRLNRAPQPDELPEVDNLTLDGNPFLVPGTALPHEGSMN
Method: Experimental reagents and consumables included cell culture fluid, electroporation buffer, CHO cells, 1 mL electroporation cuvette, Protein A chip (Cytiva, 29127556), various sizes of shake flasks, and various sizes of pipettes. Main instruments and equipment included a shaker (Taicang Huamei), centrifuge (Baiyang), ultrapure water system (Millipore), constant temperature incubator (BLUE PARD), electroporator, water bath, Biacore 8K (Cytiva), and ELISA system (Molecular Devices).
The antigen used for the binding affinity measurements is B294801. This antigen is a human CD14 antigen that is histidine tagged. D6DD3D001 is a mouse antibody, and MPDDAD001-MPDDAD005 are humanized antibodies. The antibodies are recombinant, human (hFc Tag). Selected parameters of the experimental samples are shown in Table 9-1, with MW referring to molecular weight in kDa.
The Biacore 8K platform was used to test the kinetic and affinity properties of the antibody, operating according to system instructions and indications.
Results of Affinity Detection. The affinity of the six antibodies was measured at saturation concentration. For the experiments, the analyte solution comprises the B294801 antigen with an analyte concentration of 0.1953125 nM, 0.390625 nM, 0.78125 nM, 1.5625 nM, 3.125 nM, 6.25 nM, 12.5 nM, and 25 nM. Change factor is described above.

[3] = Day 4, IgG1 (10 mg/kg), 10 mg/kg
[4] = Day 11, IgG1 (5 mg/kg), 5 mg/kg
[5] = Day 14, IgG1 (5 mg/kg), 5 mg/kg
[6] = Day 18, IgG1 (5 mg/kg), 5 mg/kg
[7] = Day 21, IgG1 (5 mg/kg), 5 mg/kg
[8] = Day 25, IgG1 (5 mg/kg), 5 mg/kg
[9] = Day 28, IgG1 (5 mg/kg), 5 mg/kg

B1: D6DD3D001: mouse-derived anti-CD14 IgG1 antibody; VH SEQ ID NO: 1, VL SEQ ID NO: 3, heavy chain SEQ ID NO: 2, light chain SEQ ID NO: 4 (antibody)
heavy: DVQLQQSGPGLVKPSQSLSLTCTVTGYSITSDSAWNWIRQFPGNRLEWMGYISYSGSTSYNPSLKSRISITRDTSKNQFFLQLNSVTTEDTATYYCVRGLRFAYWGQGTLVTVSSPSVFLFPPKPKDTLMISRTPEVTCVVVDVSHEDPEVKFNWYVDGVEVHNAKTKPREEQYNSTYRVVSVLTVLHQDWLNGKEYKCKVSNKALPAPIEKTISKAKGQPREPQVYTLPPSREEMTKNQVSLTCLVKGFYPSDIAVEWESNGQPENNYKTTPPVLDSDGSFFLYSKLTVDKSRWQQGNVFSCSVMHEALHNHYTQKSLSLSPGK
light: DIVLTQSPASLAVSLGQRATISCRASESVDSYVNSFLHWYQQKPGQPPKLLIYRASNLQSGIPARFSGSGSRTDFTLTINPVEADDVATYYCQQSNEDPYTFGGGTKLEIKRTVAAPSVFIFPPSDEQLKSGTASVVCLLNNFYPREAKVQWKVDNALQSGNSQESVTEQDSKDSTYSLSSTLTLSKADYEKHKVYACEVTHQGLSSPVTKSFNRGEC
Tumor Length ([1]; Day 0, IgG1 (5 mg/kg), 5 mg/kg): 4.41 mm and 4.54 mm and 4.71 mm and 5.12 mm and 4.93 mm | Tumor Volume ([1]; Day 0, IgG1 (5 mg/kg), 5 mg/kg): 20.01 mm^3 and 19.41 mm^3 and 19.14 mm^3 and 19.44 mm^3 and 19.33 mm^3 | Tumor Volume ([1]; Day 0, IgG1 (10 mg/kg), 10 mg/kg): 59.69 mm^3 and 68.55 mm^3 and 77.15 mm^3 and 79.05 mm^3 and 79.08 mm^3 | Tumor Length ([1]; Day 4, IgG1 (5 mg/kg), 5 mg/kg): 5.58 mm and 6.11 mm and 6.53 mm and 5.89 mm and 6.64 mm | Tumor Volume ([1]; Day 4, IgG1 (5 mg/kg), 5 mg/kg): 79.57 mm^3 and 87.80 mm^3 and 92.05 mm^3 and 94.26 mm^3 and 105.50 mm^3 | Tumor Width ([1]; Day 4, IgG1 (5 mg/kg), 5 mg/kg): 5.22 mm and 5.24 mm and 5.19 mm and 5.53 mm and 5.51 mm | Tumor Length [1, 3]: 5.95 mm and 6.55 mm | Tumor Volume [1, 3]: 81.63 mm^3 and 82.98 mm^3 and 85.32 mm^3 and 88.96 mm^3 and 108.37 mm^3 | Tumor Width [1, 3]: 5.12 mm | Tumor Volume ([1]; Day 4, IgG1 (15 mg/kg), 15 mg/kg): 76.19 mm^3 and 77.75 mm^3 and 81.95 mm^3 and 87.59 mm^3 and 90.56 mm^3 | Tumor Length ([1]; Day 7, IgG1 (5 mg/kg), 5 mg/kg): 7.84 mm and 6.11 mm and 6.37 mm and 6.61 mm and 6.56 mm | Tumor Volume ([1]; Day 7, IgG1 (5 mg/kg), 5 mg/kg): 103.81 mm^3 and 104.99 mm^3 and 109.45 mm^3 and 121.23 mm^3 and 132.82 mm^3 | Tumor Width ([1]; Day 7, IgG1 (5 mg/kg), 5 mg/kg): 5.03 mm and 5.73 mm (2×) and 5.92 mm and 6.22 mm | Tumor Volume ([1]; Day 7, IgG1 (10 mg/kg), 10 mg/kg): 112.99 mm^3 and 113.39 mm^3 and 121.55 mm^3 and 122.33 mm^3 and 133.44 mm^3 | Tumor Volume ([1]; Day 7, IgG1 (15 mg/kg), 15 mg/kg): 99.31 mm^3 and 113.51 mm^3 and 118.44 mm^3 and 127.47 mm^3 and 152.88 mm^3 | Tumor Length [1, 4]: 6.48 mm and 6.63 mm and 6.74 mm and 6.44 mm and 7.52 mm | Tumor Volume [1, 4]: 92.40 mm^3 and 103.06 mm^3 and 128.68 mm^3 and 130.81 mm^3 and 158.69 mm^3 | Tumor Width [1, 4]: 5.22 mm and 5.45 mm and 6.04 mm and 6.23 mm and 6.35 mm | Tumor Volume ([1]; Day 11, IgG1 (10 mg/kg), 10 mg/kg): 100.68 mm^3 and 105.14 mm^3 and 112.60 mm^3 and 143.90 mm^3 and 170.28 mm^3 | Tumor Length [1, 5]: 7.14 mm and 6.88 mm and 7.56 mm and 7.02 mm and 8.46 mm | Tumor Volume [1, 5]: 128.31 mm^3 and 135.30 mm^3 and 170.26 mm^3 and 171.88 mm^3 and 184.76 mm^3 | Tumor Width [1, 5]: 5.86 mm and 6.13 mm and 6.56 mm and 6.84 mm and 6.46 mm | Tumor Volume ([1]; Day 14, IgG1 (10 mg/kg), 10 mg/kg): 109.71 mm^3 and 110.99 mm^3 and 134.85 mm^3 and 153.36 mm^3 and 165.63 mm^3 | Tumor Length [1, 6]: 7.91 mm and 7.24 mm and 8.45 mm and 8.16 mm and 8.08 mm | Tumor Volume [1, 6]: 151.02 mm^3 and 169.58 mm^3 and 185.12 mm^3 and 218.31 mm^3 and 231.55 mm^3 | Tumor Width [1, 6]: 6.04 mm and 6.69 mm and 6.47 mm and 7.15 mm and 7.4 mm | Tumor Volume ([1]; Day 18, IgG1 (10 mg/kg), 10 mg/kg): 132.18 mm^3 and 141.82 mm^3 and 163.82 mm^3 and 192.29 mm^3 and 204.50 mm^3 | Tumor Length [1, 7]: 8.92 mm and 8.5 mm and 8.53 mm and 8.19 mm and 8.49 mm | Tumor Volume [1, 7]: 191.80 mm^3 and 234.46 mm^3 and 261.25 mm^3 and 271.57 mm^3 and 289.36 mm^3 | Tumor Width [1, 7]: 6.41 mm and 7.26 mm and 7.65 mm and 7.96 mm and 8.07 mm | Tumor Volume ([1]; Day 21, IgG1 (10 mg/kg), 10 mg/kg): 218.53 mm^3 and 193.54 mm^3 and 221.69 mm^3 and 223.66 mm^3 and 268.23 mm^3 | Tumor Length [1, 8]: 8.73 mm and 9.67 mm and 9.91 mm and 9.97 mm and 9.69 mm | Tumor Volume [1, 8]: 234.87 mm^3 and 334.49 mm^3 and 386.25 mm^3 and 465.95 mm^3 and 468.33 mm^3 | Tumor Width [1, 8]: 7.17 mm and 8.13 mm and 8.63 mm and 9.45 mm and 9.61 mm | Tumor Volume ([1]; Day 25, IgG1 (10 mg/kg), 10 mg/kg): 227.79 mm^3 and 282.78 mm^3 and 300.56 mm^3 and 329.18 mm^3 and 336.90 mm^3 | Tumor Length [1, 9]: 9.76 mm and 9.79 mm and 10.39 mm and 11.02 mm and 10.87 mm | Tumor Volume [1, 9]: 333.47 mm^3 and 459.47 mm^3 and 555.77 mm^3 and 603.55 mm^3 and 637.97 mm^3 | Tumor Width [1, 9]: 8.08 mm and 9.47 mm and 10.11 mm and 10.23 mm and 10.59 mm | Tumor Volume ([1]; Day 28, IgG1 (10 mg/kg), 10 mg/kg): 231.00 mm^3 and 313.49 mm^3 and 338.93 mm^3 and 402.03 mm^3 and 419.55 mm^3 | Tumor weight after 28 days ([1]; IgG1 5 mg/kg, 5 mg/kg): 0.486 grams and 0.535 grams and 0.567 grams and 0.502 grams and 0.625 grams | Tumor weight after 28 days ([1]; IgG1 10 mg/kg, 10 mg/kg): 0.341 grams and 0.302 grams and 0.267 grams and 0.285 grams and 0.386 grams | Tumor weight after 28 days ([1]; IgG1 15 mg/kg, 15 mg/kg): 0.215 grams and 0.202 grams and 0.246 grams and 0.253 grams and 0.291 grams | Tumor weight after 28 days ([1]; IgG1 25 mg/kg, 25 mg/kg): 0.158 grams and 0.184 grams and 0.191 grams and 0.204 grams and 0.211 grams | Tumor weight after 28 days ([1]; IgG1 40 mg/kg, 40 mg/kg): 0.128 grams and 0.195 grams and 0.199 grams and 0.205 grams and 0.206 grams | tumor inhibition level versus dosage ([1]; anti-CD14-IgG1 5 mg/kg to 15 mg/kg, 28 days): significantly increase with the dosage | tumor inhibition rate versus dosage ([1]; anti-CD14-IgG1 15 mg/kg to 40 mg/kg, 28 days): tumor inhibition rate remaining the same across the three groups | Koff [2]: 0.00108 s⁻¹ | kon (1:1 binding) [2]: 1.25e+06 M⁻¹ s⁻¹
